Legend:
[1] = target: T1, recombinant human HER2 extracellular domain protein (human, UniProt P04626 23-652); test: BLI, Protein A capture
T1 construct: range 23-652; Range is printed for the immunogen/panning protein; also called ErbB2; recombinant HER2 protein

[2] = target: T1, recombinant human HER2 extracellular …; test: BLI (ForteBio)
[3] = target: T1, recombinant human HER2 extracellular …; test: BLI, Protein A capture; remark: listed apart in the source

| Binder | Kd [1] | koff [1] | kon [1] | Kd [3] | koff [3] | kon [3] | other results |
| --- | --- | --- | --- | --- | --- | --- | --- |
| Hu2117HK-Mu45 (Fc fusion, scFv-hIgG1 Fc; not shown: human IgG1 Fc) scFv: EVQLVESGGGLVQPGGSLRLSCAASGFTYSSYGMSWVRQAPGKGLEWVASISGGGSYTKYPDSVKGRFTISRDNSKNTLYLQMNSLRAEDTAVYYCARDYIGFFDVWGQGTLVTVSSGGGGSGGGGSGGGGSDIQMTQSPSSLSASVGDRVTITCRSSQSLVHSNGNTYLHWYQQKPGKAPKLLIYKVSNRFSGVPSRFSGSGSGTDFTLTISSLQPEDFATYFCSQSTHVPYTFGQGTKVEIK | 12.8 nM | 0.00126 s⁻¹ | 98000 M⁻¹ s⁻¹ | – | – | – | – |
| Hu2117HK-Mu46 (Fc fusion, scFv-hIgG1 Fc; not shown: human IgG1 Fc) scFv: EVQLVESGGGLVQPGGSLRLSCAASGFTYSSYGMSWVRQAPGKGLEWVASISGGGSYTKYPDSVKGRFTISRDNSKNTLYLQMNSLRAEDTAVYYCARDYNGFFDVWGQGTLVTVSSGGGGSGGGGSGGGGSDIQMTQSPSSLSASVGDRVTITCRSSQSLVHSNGNTYLHWYQQKPGKAPKLLIYKVSNRFSGVPSRFSGSGSGTDFTLTISSLQPEDFATYFCSQSTHVPYTFGQGTKVEIK | 10.3 nM | 0.000794 s⁻¹ | 77400 M⁻¹ s⁻¹ | – | – | – | – |
| Hu2117HK-Mu48 (Fc fusion, scFv-hIgG1 Fc; not shown: human IgG1 Fc) scFv: EVQLVESGGGLVQPGGSLRLSCAASGFTYSSYGMSWVRQAPGKGLEWVASISGGGSYTKYPDSVKGRFTISRDNSKNTLYLQMNSLRAEDTAVYYCARDYRGFFDVWGQGTLVTVSSGGGGSGGGGSGGGGSDIQMTQSPSSLSASVGDRVTITCRSSQSLVHSNGNTYLHWYQQKPGKAPKLLIYKVSNRFSGVPSRFSGSGSGTDFTLTISSLQPEDFATYFCSQSTHVPYTFGQGTKVEIK | 12.1 nM | 0.00118 s⁻¹ | 97900 M⁻¹ s⁻¹ | – | – | – | – |
| Hu2117HK-Mu49 (Fc fusion, scFv-hIgG1 Fc; not shown: human IgG1 Fc) scFv: EVQLVESGGGLVQPGGSLRLSCAASGFTYSSYGMSWVRQAPGKGLEWVASISGGGSYTKYPDSVKGRFTISRDNSKNTLYLQMNSLRAEDTAVYYCARDYSGFFDVWGQGTLVTVSSGGGGSGGGGSGGGGSDIQMTQSPSSLSASVGDRVTITCRSSQSLVHSNGNTYLHWYQQKPGKAPKLLIYKVSNRFSGVPSRFSGSGSGTDFTLTISSLQPEDFATYFCSQSTHVPYTFGQGTKVEIK | 11.8 nM | 0.000761 s⁻¹ | 64500 M⁻¹ s⁻¹ | – | – | – | – |
| Hu2117HK-Mu50 (Fc fusion, scFv-hIgG1 Fc; not shown: human IgG1 Fc) scFv: EVQLVESGGGLVQPGGSLRLSCAASGFTYSSYGMSWVRQAPGKGLEWVASISGGGSYTKYPDSVKGRFTISRDNSKNTLYLQMNSLRAEDTAVYYCARDYVGFFDVWGQGTLVTVSSGGGGSGGGGSGGGGSDIQMTQSPSSLSASVGDRVTITCRSSQSLVHSNGNTYLHWYQQKPGKAPKLLIYKVSNRFSGVPSRFSGSGSGTDFTLTISSLQPEDFATYFCSQSTHVPYTFGQGTKVEIK | 16 nM | 0.0016 s⁻¹ | 100000 M⁻¹ s⁻¹ | – | – | – | – |
| Hu2117HK-Mu47 (Fc fusion, name in Kabat numbering, scFv-hIgG1 Fc; not shown: human IgG1 Fc) scFv: EVQLVESGGGLVQPGGSLRLSCAASGFTYSSYGMSWVRQAPGKGLEWVASISGGGSYTKYPDSVKGRFTISRDNSKNTLYLQMNSLRAEDTAVYYCARDYQGFFDVWGQGTLVTVSSGGGGSGGGGSGGGGSDIQMTQSPSSLSASVGDRVTITCRSSQSLVHSNGNTYLHWYQQKPGKAPKLLIYKVSNRFSGVPSRFSGSGSGTDFTLTISSLQPEDFATYFCSQSTHVPYTFGQGTKVEIK | 15.3 nM | 0.000828 s⁻¹ | 54300 M⁻¹ s⁻¹ | – | – | – | – |
| Hu2117KH (Fc fusion, not shown: human IgG1 Fc) scFv: DIQMTQSPSSLSASVGDRVTITCRSSQSLVHSNGNTYLHWYQQKPGKAPKLLIYKVSNRFSGVPSRFSGSGSGTDFTLTISSLQPEDFATYFCSQSTHVPYTFGQGTKVEIKGGGGSGGGGSGGGGSEVQLVESGGGLVQPGGSLRLSCAASGFTYSSYGMSWVRQAPGKGLEWVASISGGGSYTKYPDSVKGRFTISRDNSKNTLYLQMNSLRAEDTAVYYCARDYAGFFDVWGQGTLVTVSS | – | – | – | – | – | – | Kd [2]: 147 nM; koff [2]: 0.00381 s⁻¹; kon [2]: 25900 M⁻¹ s⁻¹ |
| Mu2117KH (Fc fusion, scFv-hIgG1 Fc fusion of mAb2117 V regions, VL-(G4S)3-VH; also called chimeric single-chain antibody control; not shown: human IgG1 Fc) scFv: DVVLTQTPLSLPVSLGDQASISCRSSQSLVHSNGNTYLHWYLQKPGQSPKLLIYKVSNRFSGVPDRFSGSGSGTDFTLKISRVEAEDLGVYFCSQSTHVPYTFGGGTKLEIKGGGGSGGGGSGGGGSEVKIEESGGGLVKPGGSLKLSCAASGFTYSSYGMSWVRQTPEKRLEWVASISGGGSYTKYPDSVKGRFTISRDNAKNHLYLQMSSLRSEDTALYYCARDYAGFFDVWGAGTTVTVSS | – | – | – | – | – | – | Kd [2]: 77.2 nM; koff [2]: 0.00545 s⁻¹; kon [2]: 70600 M⁻¹ s⁻¹ |
| Hu2126-H2K1-L71-H72b-Mu10 (antibody, IgG1, V domains shown, IgG1/Cκ; also called 7172b-Mu10) VH: QVQLVQSGSELKKPGASVKVSCKASGYTFTDYSMHWVRQAPGQGLEWMGWINTGTGEPTYADDFKGRFTISRDTSKSTAYLQISSLKAEDTAVYYCVRVGRYDYAMDYWGQGTTVTVSS VL: DIQMTQSPSSLSASVGDRVTITCRASQDVYTAVAWYQQKPGKAPKLLINAASSRPTGVPSRFSGSGSGTDFTLTISSLQPEDFATYYCQQYYSTPPTFGGGTKVEIK | – | – | – | 3.38 nM | 0.000356 s⁻¹ | 105000 M⁻¹ s⁻¹ | – |
| Hu2126-H2K1-L71-H72b-Mu12 (antibody, IgG1, V domains shown, IgG1/Cκ; also called 7172b-Mu12) VH: QVQLVQSGSELKKPGASVKVSCKASGYTFTDYSMHWVRQAPGQGLEWMGWINTGTGEPTYADDFKGRFTISRDTSKSTAYLQISSLKAEDTAVYYCVRVGRYDYAMDYWGQGTTVTVSS VL: DIQMTQSPSSLSASVGDRVTITCRASQDVYTAVAWYQQKPGKAPKLLINEASSRPTGVPSRFSGSGSGTDFTLTISSLQPEDFATYYCQQYYSTPPTFGGGTKVEIK | – | – | – | 6.74 nM | – | 78300 M⁻¹ s⁻¹ | – |
| Hu2126-H2K1-L71-H72b-Mu11 (antibody, IgG1, V domains shown, IgG1/Cκ; also called 7172b-Mu11) VH: QVQLVQSGSELKKPGASVKVSCKASGYTFTDYSMHWVRQAPGQGLEWMGWINTGTGEPTYADDFKGRFTISRDTSKSTAYLQISSLKAEDTAVYYCVRVGRYDYAMDYWGQGTTVTVSS VL: DIQMTQSPSSLSASVGDRVTITCRASQDVYTAVAWYQQKPGKAPKLLINDASSRPTGVPSRFSGSGSGTDFTLTISSLQPEDFATYYCQQYYSTPPTFGGGTKVEIK | – | – | – | 5.35 nM | 0.000482 s⁻¹ | 90100 M⁻¹ s⁻¹ | – |
| Mu2117HK (Fc fusion, scFv-hIgG1 Fc fusion of mAb2117 V regions, VH-(G4S)3-VL; also called chimeric single-chain antibody control; not shown: human IgG1 Fc) scFv: EVKIEESGGGLVKPGGSLKLSCAASGFTYSSYGMSWVRQTPEKRLEWVASISGGGSYTKYPDSVKGRFTISRDNAKNHLYLQMSSLRSEDTALYYCARDYAGFFDVWGAGTTVTVSSGGGGSGGGGSGGGGSDVVLTQTPLSLPVSLGDQASISCRSSQSLVHSNGNTYLHWYLQKPGQSPKLLIYKVSNRFSGVPDRFSGSGSGTDFTLKISRVEAEDLGVYFCSQSTHVPYTFGGGTKLEIK | – | – | – | – | – | – | Kd [2]: 76 nM; koff [2]: 0.00523 s⁻¹; kon [2]: 68800 M⁻¹ s⁻¹ |

Continued, in another order:

| Kd [1] | koff [1] | kon [1] | Kd [3] | koff [3] | kon [3] | Binder | other results |
| --- | --- | --- | --- | --- | --- | --- | --- |
| – | – | – | 4.49 nM | – | 106000 M⁻¹ s⁻¹ | Hu2126-H2K1-L71-H72b-Mu15 (antibody, IgG1, V domains shown, IgG1/Cκ; also called 7172b-Mu15) VH: QVQLVQSGSELKKPGASVKVSCKASGYTFTDYSMHWVRQAPGQGLEWMGWINTGTGEPTYADDFKGRFTISRDTSKSTAYLQISSLKAEDTAVYYCVRVGRYDYAMDYWGQGTTVTVSS VL: DIQMTQSPSSLSASVGDRVTITCRASQDVYTAVAWYQQKPGKAPKLLINQASSRPTGVPSRFSGSGSGTDFTLTISSLQPEDFATYYCQQYYSTPPTFGGGTKVEIK | – |
| – | – | – | 5.77 nM | 0.000578 s⁻¹ | 100000 M⁻¹ s⁻¹ | Hu2126-H2K1-L71-H72b-Mu16 (antibody, IgG1, V domains shown, IgG1/Cκ; also called 7172b-Mu16) VH: QVQLVQSGSELKKPGASVKVSCKASGYTFTDYSMHWVRQAPGQGLEWMGWINTGTGEPTYADDFKGRFTISRDTSKSTAYLQISSLKAEDTAVYYCVRVGRYDYAMDYWGQGTTVTVSS VL: DIQMTQSPSSLSASVGDRVTITCRASQDVYTAVAWYQQKPGKAPKLLINRASSRPTGVPSRFSGSGSGTDFTLTISSLQPEDFATYYCQQYYSTPPTFGGGTKVEIK | – |
| – | – | – | 7.23 nM | 0.000707 s⁻¹ | 97800 M⁻¹ s⁻¹ | Hu2126-H2K1-L71-H72b-Mu13 (antibody, IgG1, V domains shown, IgG1/Cκ; also called 7172b-Mu13) VH: QVQLVQSGSELKKPGASVKVSCKASGYTFTDYSMHWVRQAPGQGLEWMGWINTGTGEPTYADDFKGRFTISRDTSKSTAYLQISSLKAEDTAVYYCVRVGRYDYAMDYWGQGTTVTVSS VL: DIQMTQSPSSLSASVGDRVTITCRASQDVYTAVAWYQQKPGKAPKLLINKASSRPTGVPSRFSGSGSGTDFTLTISSLQPEDFATYYCQQYYSTPPTFGGGTKVEIK | – |
| – | – | – | 7.96 nM | – | 124000 M⁻¹ s⁻¹ | Hu2126-H2K1-L71-H72b-Mu18 (antibody, IgG1, V domains shown, IgG1/Cκ; also called 7172b-Mu18) VH: QVQLVQSGSELKKPGASVKVSCKASGYTFTDYSMHWVRQAPGQGLEWMGWINTGTGEPTYADDFKGRFTISRDTSKSTAYLQISSLKAEDTAVYYCVRVGRYDYAMDYWGQGTTVTVSS VL: DIQMTQSPSSLSASVGDRVTITCRASQDVYTAVAWYQQKPGKAPKLLINWASSRPTGVPSRFSGSGSGTDFTLTISSLQPEDFATYYCQQYYSTPPTFGGGTKVEIK | – |
| – | – | – | 2.9 nM | 0.000314 s⁻¹ | 108000 M⁻¹ s⁻¹ | Hu2126-H2K1-L71-H72b-Mu19 (antibody, IgG1, V domains shown, IgG1/Cκ; also called 7172b-Mu19) VH: QVQLVQSGSELKKPGASVKVSCKASGYTFTDYSMHWVRQAPGQGLEWMGWINTGTGEPTYADDFKGRFTISRDTSKSTAYLQISSLKAEDTAVYYCVRVGRYDYAMDYWGQGTTVTVSS VL: DIQMTQSPSSLSASVGDRVTITCRASQDVYTAVAWYQQKPGKAPKLLINYASSRPTGVPSRFSGSGSGTDFTLTISSLQPEDFATYYCQQYYSTPPTFGGGTKVEIK | – |
| – | – | – | 2.8 nM | 0.000276 s⁻¹ | 98500 M⁻¹ s⁻¹ | Hu2126-H2K1-L71-H72b-Mu17 (antibody, IgG1, V domains shown, IgG1/Cκ; also called 7172b-Mu17) VH: QVQLVQSGSELKKPGASVKVSCKASGYTFTDYSMHWVRQAPGQGLEWMGWINTGTGEPTYADDFKGRFTISRDTSKSTAYLQISSLKAEDTAVYYCVRVGRYDYAMDYWGQGTTVTVSS VL: DIQMTQSPSSLSASVGDRVTITCRASQDVYTAVAWYQQKPGKAPKLLINSASSRPTGVPSRFSGSGSGTDFTLTISSLQPEDFATYYCQQYYSTPPTFGGGTKVEIK | – |
| – | – | – | 0.825 nM | 8.31e-05 s⁻¹ | 101000 M⁻¹ s⁻¹ | Hu2126-H2K1-L71-H72b-Mu14 (antibody, IgG1, V domains shown, IgG1/Cκ; also called 7172b-Mu14; Hu2126-7172b-Mu14) VH: QVQLVQSGSELKKPGASVKVSCKASGYTFTDYSMHWVRQAPGQGLEWMGWINTGTGEPTYADDFKGRFTISRDTSKSTAYLQISSLKAEDTAVYYCVRVGRYDYAMDYWGQGTTVTVSS VL: DIQMTQSPSSLSASVGDRVTITCRASQDVYTAVAWYQQKPGKAPKLLINLASSRPTGVPSRFSGSGSGTDFTLTISSLQPEDFATYYCQQYYSTPPTFGGGTKVEIK | – |
